The values below come from publication PMC6170785, “Synthetic Fragments of Receptor for Advanced Glycation End Products Bind Beta-Amyloid 1–40 and Protect Primary Brain Cells From Beta-Amyloid Toxicity” (Frontiers in Neuroscience, 2018).

The Kd is the equilibrium constant for the complex coming apart. The low end stands for a tighter complex, the high end for a looser complex.

Test [1] deals with primary cultures of neurons and astrocytes derived from hippocampal and cortical areas of rats' brains. The test can be described thus: Caspase 3 activity assay (NucView 488) after Aβ 1–42 treatment. It is filed as cell-based, rat. The note with it: pre-incubation 3 h with 10 μM peptide, then 1 h with 5 μM Aβ 1–42, NucView 488, confocal, mean (SEM) of N = 6–28 fields.
Method: Mixed cultures of hippocampal and cortical neurons and glial cells were prepared as described previously ([Vaarmann et al., 2010]) with modifications, from Sprague-Dawley rat pups 2–4 days post-partum (UCL breeding colony). […] Hippocampi and cortex were removed into ice-cold PBS (Ca^2+, Mg^2+-free, Invitrogen, Paisley, United Kingdom). The tissue was minced and trypsinised (0.25% for 15 min at 37°C), triturated and plated on Poly-D-lysine-coated coverslips and cultured in Neurobasal A medium (Invitrogen, Paisley, United Kingdom) supplemented with B-27 (Invitrogen, Paisley, United Kingdom) and 2 mM L-glutamine. […]
For the measurement of caspase 3 activation, cells were loaded for 15 min at room temperature with 10 μM NucView 488 caspase 3 substrate (Biotium, United States) in HBSS. […] The 488 nm argon laser was used to excite NucView 488 fluorescence, which was measured using a bandpass filter from 510 and 560 nm. […] The number of cells with activated caspase 3 and the number of all visible cells was quantified manually in each field and the percentage of dead cells was calculated by dividing the number of caspase 3-positive cells by the number of all cells counted in one field. The differences between the groups were evaluated using the two-sample t-test. All data were expressed as mean ± SEM. […]
Test [2] concerns the target T1, Aβ 1–40 (Homo sapiens, UniProt P05067).
T1 construct: Lyophilized synthetic Aβ 1–40 was dissolved in mili-Q water; host or cells: chemical synthesis (synthetic peptide)
As to the kind of experiment: Fluorescent titration of RAGE fragments by Aβ 1–40. The note with it: tryptophan fluorescence titration with Aβ 1–40; 25 mM Tris-HCl, 100 mM NaCl, 5 mM EDTA, pH 7.5; peptide 0.5 μM (P1) or 2 μM (P2–P6); excitation 285 nm, emission 355 nm; mean ± SEM of three independent measurements. The test is classed as binding. Here is the method:
The fluorescence titrations of synthetic peptides were performed using Fluoromax 3 fluorescence spectrophotometer (Horiba Jobin Yvon, Germany). Titrations were conducted in a quartz cuvette with 2 ml of titration buffer (25 mM Tris-HCl, 100 mM NaCl, 5 mM EDTA, pH 7.5). The concentration of peptide (60–76) which has two tryptophan residues was 0.5 μM. Whereas peptides (60–70), (60–62), (60–65), (62–73), and (65–76) have only one Trp residue, their concentration was 2 μM to enhance the signal. Lyophilized synthetic Aβ 1–40 was dissolved in mili-Q water at a concentration of 1 mM. […]
The fluorescence spectrum was measured after each addition of beta-amyloid. […] Emission was detected in the range of […]. The maximum of fluorescence intensity was found at 355 nm. […]
where [S] – concentration of Aβ 1–40 in cuvette; ΔF is the difference of intensity between experiment in absence of Aβ 1–40 and experiment with beta-amyloid at the certain concentration and ΔFmax is the maximal fluorescence change ([Huang et al., 2016]). […]
The dissociation constant Kd was found by multiplication of the calculated slope factor and ΔFmax. For each peptide the dissociation constant was measured three times independently. Dissociation constants were expressed as mean ± SEM. P-values were measured by Mann-Whitney test to estimate the differences between each of obtained dissociation constants.

The target in test [3] is Beta-amyloid 1-40 Abeta 1-40 (Homo sapiens, UniProt P05067). As to the kind of experiment: tryptophan fluorescence titration.
Chain of Beta-amyloid 1-40 Abeta 1-40 (P05067 1-40): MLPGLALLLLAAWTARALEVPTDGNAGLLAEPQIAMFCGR

T1 sequence (P05067 672-711 limits assumed): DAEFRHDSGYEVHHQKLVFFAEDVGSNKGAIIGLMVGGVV

For the molecule “SPQGGGPWDSVA [Peptide P5, synthetic fragment (65–76) of human RAGE]”, the results for the “Percentage of cells with activated caspase 3, Mean” value in test [1] and in test [1] (SEM) were 14.25% and 14.25 ± 3.22%, respectively. For the same molecule, the Kd entry in test [2] is “No binding”.

B1: RAGE fragment P1 (60-76) (peptide)
chain: AWKVLSPQGGGPWDSVA
In turn, B1 yielded a Kd in test [3] of 1390 nM.

B2: RAGE fragment P3 (60-62) (peptide)
chain: AWK
With B2, in test [3], the Kd turned out to be 840 nM.

B3: RAGE fragment P4 (60-65) (peptide)
chain: AWKVLS
With B3, binding in test [3] was characterised by a dissociation constant (Kd) of 2810 nM.

B4: RAGE fragment P6 (62-73) (peptide)
chain: KVLSPQGGGPWD
Regarding B4, in test [3], the Kd stood at 1530 nM.

B5: RAGE fragment P2 (60-70) (peptide)
chain: AWKVLSPQGGG
Molecule B5 gave a Kd in test [3] of 4060 nM.
